Patent US20230338524A1

Key:
mouse VEGFR2 (mouse) = mouse VEGFR2 (mouse) (UniProt P35918); assay: Blocking ELISA, panel 'mVEGF-mVEGFR2'; blocked ligand murine VEGF; antibody titrated (Log (M))
[1] = biological target: soluble murine VEGFR2 (murine) (UniProt P35918); assay: ELISA, OD450, panel 'mVEGFR2', antibody titrated (Log (M))
soluble murine VEGFR2 (murine), sequence (P35918 20-762 limits assumed): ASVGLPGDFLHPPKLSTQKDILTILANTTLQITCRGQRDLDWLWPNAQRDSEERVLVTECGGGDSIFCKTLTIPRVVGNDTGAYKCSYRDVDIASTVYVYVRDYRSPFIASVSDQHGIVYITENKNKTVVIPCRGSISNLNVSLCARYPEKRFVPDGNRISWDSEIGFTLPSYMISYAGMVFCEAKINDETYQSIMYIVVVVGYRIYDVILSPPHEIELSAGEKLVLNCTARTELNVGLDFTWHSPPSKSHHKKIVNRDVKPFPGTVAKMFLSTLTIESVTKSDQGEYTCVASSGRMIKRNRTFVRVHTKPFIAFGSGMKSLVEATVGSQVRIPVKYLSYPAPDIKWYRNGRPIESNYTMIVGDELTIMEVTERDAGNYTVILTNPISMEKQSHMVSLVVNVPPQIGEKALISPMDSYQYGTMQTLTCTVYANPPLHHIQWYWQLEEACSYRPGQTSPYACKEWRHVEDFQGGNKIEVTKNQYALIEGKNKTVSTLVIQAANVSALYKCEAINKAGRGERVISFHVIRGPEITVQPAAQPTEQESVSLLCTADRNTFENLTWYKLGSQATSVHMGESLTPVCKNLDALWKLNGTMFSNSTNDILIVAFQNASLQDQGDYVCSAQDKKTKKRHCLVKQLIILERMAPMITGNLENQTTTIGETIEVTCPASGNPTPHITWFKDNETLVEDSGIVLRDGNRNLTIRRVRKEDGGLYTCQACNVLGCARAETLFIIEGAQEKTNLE

mouse VEGFR2 (mouse), sequence (P35918 20-762 limits assumed): as above

IC50 (read off the curve) (mouse VEGFR2 (mouse)): 500 pM
EC50 (read off the curve) [1]: 300 pM
B1: DC101 (a murine monoclonal Ab that binds to murine VEGFR2) (antibody, from another filing, V domains shown)
VH: EVQLVETGGGLVQPGNSLKLSCATSGFIFSTTWMNWIRQTPGKRLEWLAQIEDKSNNYFISYSESVKGRFTISRDDSKSSVYLQMNNLKEEDTAIYYCSWKYRSNYYFDYWGQGVMVTVSS
VL: DIVLTQSPALAVSLEQRATISCKTSQNVDYYGISYLHWYQQKPGQQPKLLIYEGSNLASGIPARFSGSGSGTDFTLTIDPVEADDIVTYYCQQSKDYPYTFGAGTKLELKR
